Results taken from patent US20250034527A1 (Stanford University, published 2025).
Positions count from the first letter of the chain named.

What was measured:
[1] = molecular target: T1, Fzd8 CRD (human, UniProt Q9H461 30-151, limits assumed, biotinylated); experiment: SPR, biotinylated Fzd CRD captured on SA chip, DFB as analyte
T1 construct: domain: CRD; Species 'human' comes from the specificity statements; also called Fz8; frizzled 8 cysteine rich domain
T1 sequence (looked up): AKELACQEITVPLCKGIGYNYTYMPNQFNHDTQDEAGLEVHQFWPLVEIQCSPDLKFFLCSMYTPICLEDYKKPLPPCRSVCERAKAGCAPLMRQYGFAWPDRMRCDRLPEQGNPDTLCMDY
Method: (§1) Second, individual DFB proteins were purified and surface Plasmon Resonance (SPR) used to measure the affinity between Fzd CRD with the DFB. The biotinylated Fzd CRD was captured on SA sensor chip at low density. A gradient concentration of DFB analyte was flown over the chip. The data was analyzed by BIACore accompanying software.

[2] = molecular target: T2, Fzd4 CRD (human, UniProt Q9ULV1 40-161, limits assumed, biotinylated); experiment: as above
T2 construct: domain: CRD; also called Fz4; frizzled 4 cysteine rich domain
T2 sequence (looked up): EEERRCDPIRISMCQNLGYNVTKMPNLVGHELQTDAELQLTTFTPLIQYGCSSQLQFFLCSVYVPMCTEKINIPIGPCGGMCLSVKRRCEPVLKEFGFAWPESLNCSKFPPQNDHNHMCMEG
Method: as §1

[3] = molecular target: T3, Fzd5 CRD (human, UniProt Q13467 28-150, limits assumed, biotinylated); experiment: yeast surface display of 4AF30, staining with biotinylated Fzd CRD and streptavidin-Alexa Fluor 647, flow cytometry
T3 construct: domain: CRD; Species 'human' comes from the specificity statements; also called Fz5; frizzled 5 cysteine rich domain
T3 sequence (looked up): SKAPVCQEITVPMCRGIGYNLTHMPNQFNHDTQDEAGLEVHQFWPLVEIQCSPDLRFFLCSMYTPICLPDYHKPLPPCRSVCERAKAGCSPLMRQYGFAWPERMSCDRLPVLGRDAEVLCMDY
From the text: (§2) To understand the affinity of individual DFBs towards different Fzd CRDs, two different methods were used to measure the specificity and affinity. DFBs were expressed on yeast surface and the yeast stained with biotinylated Fzd CRDs. The cells were washed and Streptavidin, Alexa Fluor™ 647 conjugates were used to stain the yeasts. The fluorescence signals were read on flow cytometry.

[4] = molecular target: T4, Fzd2 CRD (human, UniProt Q14332 34-153); experiment: as above
From the text: as §2

[5] = molecular target: T5, Fzd1 CRD (human, UniProt Q9UP38 111-230); experiment: as above
From the text: as §2

[6] = molecular target: T2, Fzd4 CRD; experiment: yeast surface display of DFB, titration with biotinylated Fzd CRD, flow cytometry
From the text: as §2

[7] = molecular target: T4, Fzd2 CRD; experiment: yeast surface display of DFB, titration with biotinylated Fzd CRD, flow cytometry; yeast titration, Fz2
From the text: as §2

[8] = molecular target: T6, Fzd7 CRD (human, UniProt O75084 44-163); experiment: SPR: biotinylated Fzd7 CRD captured on an SA chip, 1AF34 as analyte, 63 nM down to 0.24 nM
Method: as §1

[9] = molecular target: T6, Fzd7 CRD; experiment: SPR, biotinylated Fzd CRD captured on SA chip, DFB as analyte; SPR, Fzd7
Method: as §1

[10] = molecular target: T5, Fzd1 CRD; experiment: yeast surface display of DFB, titration with biotinylated Fzd CRD, flow cytometry; yeast titration, Fz1
From the text: as §2

[11] = molecular target: T6, Fzd7 CRD; experiment: yeast surface display of DFB, titration with biotinylated Fzd CRD, flow cytometry; yeast titration, Fz7
From the text: as §2

[12] = molecular target: T1, Fzd8 CRD; experiment: SPR, biotinylated Fzd CRD captured on SA chip, DFB as analyte; SPR, Fzd8
Method: as §1

[13] = molecular target: T6, Fzd7 CRD; experiment: SPR, biotinylated Fzd CRD captured on SA chip, DFB as analyte
Method: as §1

[14] = molecular target: T1, Fzd8 CRD; experiment: SPR: biotinylated Fzd8 CRD captured on an SA chip, 1AF34F7 as analyte, 1 uM down to 0.24 nM
Method: as §1

[15] = molecular target: T3, Fzd5 CRD; experiment: yeast surface display titration with biotinylated Fzd CRD, flow cytometry
[16] = molecular target: T4, Fzd2 CRD; experiment: yeast surface display of ANK12, staining with biotinylated Fzd CRD and streptavidin-Alexa Fluor 647, flow cytometry
From the text: as §2

[17] = molecular target: T6, Fzd7 CRD; experiment: as above
From the text: as §2

[18] = molecular target: T5, Fzd1 CRD; experiment: as above
From the text: as §2

[19] = molecular target: T2, Fzd4 CRD; experiment: as above
From the text: as §2

[20] = molecular target: T3, Fzd5 CRD; experiment: yeast surface display of DFB, titration with biotinylated Fzd CRD, flow cytometry
From the text: as §2

[21] = molecular target: T1, Fzd8 CRD; experiment: as above
From the text: as §2

B1: 4AF30 (designed binder)
chain: SELGKRLIRAALDGNKDRVKDLIENGADVNASLMSGTTPLYAAAMNGHKEVVKLLISKGADVNAQSVAGSTPLVAAANFGHNEVVKLLISKGADVNAVTAFGVTPLHAAAADGHKEVVKLLISKGADVNAKAGRGMTPLHIAAFRGHKEVVKLLISKGADLNTSAKDGATPLDMARESGNEEVVKLLEKQLE
notes: Engineered ankyrin-repeat protein; Display fusion and tags are not described; also called DFB
Question: B1 was tested. Which Kd [1] did it give?
Answer: Its Kd is 400 nM.

Question: And the Kd [2]?
Answer: Its Kd is 1.4 nM.

Question: Does B1 bind [3]?
Answer: Result: no binding (tested: 1000 nM)

Question: Does B1 bind [4]?
Answer: Result: no binding (tested: 1000 nM)

Question: Does B1 bind [5]?
Answer: Result: no binding (tested: 1000 nM)

Question: And the EC50 [6]?
Answer: The EC50 was 1.6 nM.

B2: 1AF34 (designed binder)
chain: SELGTRLIRAALDGNKDRVKDLIENGADVNASLMSGATPLHAAAMNGHKEVVKLLISKGADVNAQSVAGSTPLDAAAFSGHKEVVKLLISKGADVNAVNAAGLTPLHAAADNGHKEVVKLLISKGADVNAKADHGMTPLHFAAQRGHKEVVKLLISKGADLNTSAKDGATPLDMARESGNEEVVKLLEKQLE
notes: as for B1
Question: What does the source list for B2?
Answer: EC50 [7]: 31.6 nM; Kd [8]: 1.3 nM; Kd [9]: 1 nM; EC50 [10]: 19 nM; EC50 [11]: 5.6 nM; Kd [12]: 23 nM

B3: 1AF34F7 (designed binder)
chain: B2 chain with A108D, N112D, K115N
notes: as for B1
Question: Which EC50 [7] does the source give for B3 here?
Answer: Its EC50 is 9.9 nM.

Question: And the Kd [13]?
Answer: The Kd was 1.6 nM.

Question: And the EC50 [10]?
Answer: The EC50 was 7.5 nM.

Question: And the Kd [14]?
Answer: The Kd was 2600 nM.

Question: Does B3 bind [15]?
Answer: Result: no binding (tested: 1 µM)

Question: And the EC50 [11]?
Answer: Its EC50 is 1.8 nM.

B4: ANK12 (designed binder)
chain: SELGKRLIMAALDGNKDRVKDLIENGADVNASLVSGATPLHAAAMNGHKEVVKLLISKGADVNAQSAAGSTPLAAAAINGHKEVVKLLISKGADVNAVTAAGMTPLHAAAANGHKEVVKLLISKGADVNAKADRGMTPLHFAAWRGHKEVVKLLISKGADLNTSAKDGATPLDMARESGNEEVVKLLEKQLE
notes: as for B1
Question: For B4, which Kd [1] is on record?
Answer: The Kd was 0.2 nM.

Question: Does B4 bind [16]?
Answer: Result: no binding (tested: 1000 nM)

Question: Does B4 bind [17]?
Answer: Result: no binding (tested: 1000 nM)

Question: Does B4 bind [18]?
Answer: Result: no binding (tested: 1000 nM)

Question: Does B4 bind [19]?
Answer: Result: no binding (tested: 1000 nM)

Question: What about the EC50 [20] of the same binder?
Answer: The EC50 was 4.4 nM.

Question: And the EC50 [21]?
Answer: The EC50 was 3.6 nM.
